The supplement of paper PMC10065799, “High-throughput profiling of sequence recognition by tyrosine kinases and SH2 domains using bacterial peptide display” (eLife, 2023)

Legend:
Grb2 SH2 = Grb2 SH2 (UniProt P62993); experiment: SH2 binding enrichment of the phosphorylated peptide, bacterial display (enrichment ratio); higher = better substrate or ligand; peptides without Tyr show the background
c-Src SH2 = experiment: as above
SHP2-C SH2 = experiment: as above
EPHB1 = EPHB1 (UniProt P54762); experiment: phosphorylation enrichment, bacterial display (enrichment ratio); higher = better substrate or ligand; peptides without Tyr show the background
c-Abl (mouse) = experiment: as above
FGFR1 = FGFR1 (UniProt P11362); experiment: as above
Jak2 = Jak2 (UniProt O60674); experiment: as above
Fer (mouse) = experiment: as above
Fyn = Fyn (UniProt P06241); experiment: as above
Hck = Hck (UniProt P08631); experiment: as above
EPHB2 = EPHB2 (UniProt P29323); experiment: as above
AncSZ = experiment: as above
c-Src = experiment: as above
FGFR3 = FGFR3 (UniProt P22607); experiment: as above
MERTK = MERTK (UniProt Q12866); experiment: as above
Fes = Fes (UniProt P07332); experiment: as above
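For SH2 binding enrichment of the phosphorylated peptide, bacterial display in this document: peptide library displayed on the E. coli surface as eCPX fusions, selected cells deep-sequenced, score is each peptide's frequency after selection divided by its frequency in the input.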
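For phosphorylation enrichment, bacterial display in this document: 11-residue human phosphosite peptides and single-mutation variants displayed on the E. coli surface, counted by deep sequencing, each peptide's frequency after selection divided by its frequency in the unselected input library; frequency after pTyr selection over input frequency; kinase dosed for 20-30% of maximal phosphorylation in three min.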

Chain of Fes (P07332 whole entry, looked up, the tested form may be a part): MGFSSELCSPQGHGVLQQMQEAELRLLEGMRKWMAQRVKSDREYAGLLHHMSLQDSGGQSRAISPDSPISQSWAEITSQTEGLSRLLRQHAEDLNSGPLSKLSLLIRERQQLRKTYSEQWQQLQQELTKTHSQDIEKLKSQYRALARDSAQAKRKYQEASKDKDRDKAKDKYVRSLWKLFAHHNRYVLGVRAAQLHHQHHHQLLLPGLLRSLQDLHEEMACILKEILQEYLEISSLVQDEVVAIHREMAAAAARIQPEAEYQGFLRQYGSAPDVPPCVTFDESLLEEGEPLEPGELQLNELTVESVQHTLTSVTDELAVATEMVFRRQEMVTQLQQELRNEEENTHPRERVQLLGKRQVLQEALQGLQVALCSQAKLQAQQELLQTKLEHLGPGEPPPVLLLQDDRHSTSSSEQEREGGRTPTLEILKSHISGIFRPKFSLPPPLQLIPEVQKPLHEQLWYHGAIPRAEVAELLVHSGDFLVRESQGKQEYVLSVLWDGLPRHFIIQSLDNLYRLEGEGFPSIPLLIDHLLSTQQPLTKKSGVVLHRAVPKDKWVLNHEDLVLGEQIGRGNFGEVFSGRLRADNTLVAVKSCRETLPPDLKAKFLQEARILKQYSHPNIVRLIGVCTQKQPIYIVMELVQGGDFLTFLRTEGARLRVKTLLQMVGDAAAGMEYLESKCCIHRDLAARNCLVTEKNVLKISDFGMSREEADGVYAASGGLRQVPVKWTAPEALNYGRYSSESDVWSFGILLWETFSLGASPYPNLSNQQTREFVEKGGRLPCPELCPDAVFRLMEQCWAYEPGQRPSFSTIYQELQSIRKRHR
Chain of Jak2 (O60674 whole entry, looked up): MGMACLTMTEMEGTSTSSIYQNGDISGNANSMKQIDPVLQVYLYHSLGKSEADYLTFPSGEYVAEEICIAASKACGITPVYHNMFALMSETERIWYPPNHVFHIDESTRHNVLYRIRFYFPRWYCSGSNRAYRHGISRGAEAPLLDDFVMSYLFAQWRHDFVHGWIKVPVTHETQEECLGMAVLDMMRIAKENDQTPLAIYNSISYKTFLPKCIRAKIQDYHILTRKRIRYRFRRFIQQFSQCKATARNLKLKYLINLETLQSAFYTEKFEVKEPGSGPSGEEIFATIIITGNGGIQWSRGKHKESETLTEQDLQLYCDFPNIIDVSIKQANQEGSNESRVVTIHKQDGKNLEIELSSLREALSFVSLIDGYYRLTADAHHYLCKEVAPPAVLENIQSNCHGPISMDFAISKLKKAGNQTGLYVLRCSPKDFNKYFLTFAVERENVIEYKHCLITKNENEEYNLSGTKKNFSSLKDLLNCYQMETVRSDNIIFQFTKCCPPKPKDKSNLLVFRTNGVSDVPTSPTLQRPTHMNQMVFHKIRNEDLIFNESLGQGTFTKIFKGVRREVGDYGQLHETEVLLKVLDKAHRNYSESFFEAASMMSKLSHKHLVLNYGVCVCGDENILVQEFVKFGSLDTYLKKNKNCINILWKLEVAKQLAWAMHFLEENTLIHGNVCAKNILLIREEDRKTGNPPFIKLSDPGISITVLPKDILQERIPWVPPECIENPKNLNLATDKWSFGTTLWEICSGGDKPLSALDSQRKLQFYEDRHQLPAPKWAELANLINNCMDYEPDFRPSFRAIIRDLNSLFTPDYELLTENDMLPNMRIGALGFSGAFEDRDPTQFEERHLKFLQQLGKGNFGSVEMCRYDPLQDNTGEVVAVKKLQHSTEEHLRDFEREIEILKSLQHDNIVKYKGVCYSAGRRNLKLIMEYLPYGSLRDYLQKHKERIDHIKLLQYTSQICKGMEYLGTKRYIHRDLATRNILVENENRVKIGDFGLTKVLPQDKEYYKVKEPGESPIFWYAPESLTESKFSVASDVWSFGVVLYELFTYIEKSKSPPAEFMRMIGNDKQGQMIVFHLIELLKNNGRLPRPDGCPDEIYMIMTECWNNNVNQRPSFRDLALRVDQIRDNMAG
Chain of FGFR1 (P11362 whole entry, looked up): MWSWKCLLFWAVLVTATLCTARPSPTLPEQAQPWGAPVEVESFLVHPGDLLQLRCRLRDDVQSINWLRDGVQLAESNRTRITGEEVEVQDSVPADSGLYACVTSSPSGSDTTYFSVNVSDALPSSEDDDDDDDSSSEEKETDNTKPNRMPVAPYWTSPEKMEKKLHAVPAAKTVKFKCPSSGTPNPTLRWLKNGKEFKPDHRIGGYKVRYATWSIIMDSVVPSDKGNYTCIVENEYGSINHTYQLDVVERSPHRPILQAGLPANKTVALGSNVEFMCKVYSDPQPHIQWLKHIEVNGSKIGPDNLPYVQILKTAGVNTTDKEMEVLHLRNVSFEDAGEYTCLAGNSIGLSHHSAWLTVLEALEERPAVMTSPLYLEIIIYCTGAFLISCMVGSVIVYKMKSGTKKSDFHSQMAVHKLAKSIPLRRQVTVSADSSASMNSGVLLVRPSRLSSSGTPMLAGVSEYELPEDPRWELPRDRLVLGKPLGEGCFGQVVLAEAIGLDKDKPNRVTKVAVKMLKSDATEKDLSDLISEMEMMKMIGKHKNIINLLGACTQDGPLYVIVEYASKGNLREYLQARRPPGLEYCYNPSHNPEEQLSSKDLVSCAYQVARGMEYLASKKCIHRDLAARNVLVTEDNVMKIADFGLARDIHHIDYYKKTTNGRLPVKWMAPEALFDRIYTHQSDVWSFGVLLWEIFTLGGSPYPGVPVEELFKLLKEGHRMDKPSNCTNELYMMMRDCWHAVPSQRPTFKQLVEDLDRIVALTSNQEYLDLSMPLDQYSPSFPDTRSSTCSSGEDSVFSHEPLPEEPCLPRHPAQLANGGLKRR
Chain of Fyn (P06241 whole entry, looked up): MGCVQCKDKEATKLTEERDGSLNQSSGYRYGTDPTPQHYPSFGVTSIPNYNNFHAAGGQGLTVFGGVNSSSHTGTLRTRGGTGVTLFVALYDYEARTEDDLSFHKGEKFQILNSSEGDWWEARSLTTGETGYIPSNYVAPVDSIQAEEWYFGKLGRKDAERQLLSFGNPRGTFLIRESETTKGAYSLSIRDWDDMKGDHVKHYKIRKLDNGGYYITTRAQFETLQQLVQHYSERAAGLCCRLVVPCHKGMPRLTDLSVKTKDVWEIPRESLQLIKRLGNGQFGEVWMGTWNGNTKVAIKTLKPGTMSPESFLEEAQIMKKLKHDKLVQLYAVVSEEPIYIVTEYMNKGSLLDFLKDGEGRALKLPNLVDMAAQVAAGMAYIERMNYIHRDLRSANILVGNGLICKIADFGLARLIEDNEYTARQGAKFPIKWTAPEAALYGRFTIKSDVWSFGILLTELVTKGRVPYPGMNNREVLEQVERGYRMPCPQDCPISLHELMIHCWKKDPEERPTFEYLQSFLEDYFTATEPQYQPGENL
Chain of FGFR3 (P22607 whole entry, looked up): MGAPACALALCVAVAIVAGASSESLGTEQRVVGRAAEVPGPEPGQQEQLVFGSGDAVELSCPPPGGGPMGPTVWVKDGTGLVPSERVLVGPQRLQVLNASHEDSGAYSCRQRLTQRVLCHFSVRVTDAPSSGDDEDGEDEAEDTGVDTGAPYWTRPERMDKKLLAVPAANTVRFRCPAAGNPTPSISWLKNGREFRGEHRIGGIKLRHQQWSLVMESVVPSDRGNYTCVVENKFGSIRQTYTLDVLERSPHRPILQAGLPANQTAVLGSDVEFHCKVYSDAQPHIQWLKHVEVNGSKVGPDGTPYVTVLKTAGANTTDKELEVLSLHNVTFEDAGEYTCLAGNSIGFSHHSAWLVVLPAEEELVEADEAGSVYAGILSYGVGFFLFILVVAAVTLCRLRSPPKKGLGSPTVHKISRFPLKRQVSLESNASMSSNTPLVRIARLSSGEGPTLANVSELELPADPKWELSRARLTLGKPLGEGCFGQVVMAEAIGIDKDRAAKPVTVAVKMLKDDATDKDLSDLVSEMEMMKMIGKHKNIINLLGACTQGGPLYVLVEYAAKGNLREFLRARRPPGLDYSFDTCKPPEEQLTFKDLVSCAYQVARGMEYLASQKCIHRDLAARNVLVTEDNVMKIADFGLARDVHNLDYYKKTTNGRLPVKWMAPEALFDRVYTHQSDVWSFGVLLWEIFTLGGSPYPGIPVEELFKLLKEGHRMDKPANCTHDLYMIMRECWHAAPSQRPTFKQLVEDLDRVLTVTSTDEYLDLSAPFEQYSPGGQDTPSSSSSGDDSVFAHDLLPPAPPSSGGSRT
Chain of Hck (P08631 whole entry, looked up): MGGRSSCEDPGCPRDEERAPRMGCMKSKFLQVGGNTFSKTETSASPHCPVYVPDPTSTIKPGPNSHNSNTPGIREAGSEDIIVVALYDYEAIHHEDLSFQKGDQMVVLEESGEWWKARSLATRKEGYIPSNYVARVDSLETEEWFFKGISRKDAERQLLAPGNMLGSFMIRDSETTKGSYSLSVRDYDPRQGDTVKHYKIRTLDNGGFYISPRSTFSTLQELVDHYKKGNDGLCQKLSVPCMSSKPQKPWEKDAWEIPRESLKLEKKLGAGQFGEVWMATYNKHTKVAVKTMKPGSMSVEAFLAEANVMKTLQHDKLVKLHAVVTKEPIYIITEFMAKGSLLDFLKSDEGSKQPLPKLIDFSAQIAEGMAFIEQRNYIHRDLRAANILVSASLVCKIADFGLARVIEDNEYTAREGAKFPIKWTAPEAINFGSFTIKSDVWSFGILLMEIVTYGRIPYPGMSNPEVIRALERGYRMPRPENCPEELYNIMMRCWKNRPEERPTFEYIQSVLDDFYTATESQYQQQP

| Sequence | SH2 binding enrichment (Grb2 SH2) | SH2 binding enrichment (c-Src SH2) | SH2 binding enrichment (SHP2-C SH2) | phosphorylation enrichment (EPHB1) | phosphorylation enrichment (c-Abl (mouse)) | phosphorylation enrichment (FGFR1) | phosphorylation enrichment (Jak2) | phosphorylation enrichment (Fer (mouse)) | phosphorylation enrichment (Fyn) | phosphorylation enrichment (Hck) | phosphorylation enrichment (EPHB2) | phosphorylation enrichment (AncSZ) | phosphorylation enrichment (c-Src) | phosphorylation enrichment (FGFR3) | phosphorylation enrichment (MERTK) | phosphorylation enrichment (Fes) |
| --- | --- | --- | --- | --- | --- | --- | --- | --- | --- | --- | --- | --- | --- | --- | --- | --- |
| RYLTRYIYNRE [HLA-DQB1_Y62_V59L] | 1.11 | 0.627 | 0.763 | 4.73 | 1.07 | 0.564 | 1.92 | 0.813 | 1.11 | 0.621 | 0.773 | 1.91 | 1.57 | 0.772 | 3.87 | 1.32 |
| VAFLYYKSIGP [ADGRL4_Y302_V300L] | 0.771 | 0.341 | 0.633 | 0.78 | 1.43 | 0.531 | 1.44 | 0.589 | 0.45 | 0.625 | 0.776 | 1.21 | 0.392 | 1.09 | 0.389 | 1.54 |
| SIKDKHVTALF [KCNH2_Y611_Y611H_YF] | 0.659 | 0.443 | 0.456 | 0.354 | 0.486 | 0.418 | 0.441 | 0.399 | 0.417 | 0.463 | 0.42 | 0.576 | 0.52 | 0.435 | 0.469 | 0.633 |
| NELTYYCYKKD [CD59_Y87_C89Y] | 0.728 | 0.482 | 0.505 | 0.804 | 5.45 | 2.1 | 2 | 0.692 | 3.84 | 4.17 | 0.826 | 1.81 | 4.48 | 1.98 | 1.77 | 1.51 |
| MGGSLYFSFPD [HIKESHI_Y55_V54L_YF] | 0.926 | 0.444 | 0.591 | 7.73 | 1.61 | 5.92 | 3.96 | 0.871 | 5.08 | 4.95 | 5.46 | 2.27 | 5.75 | 5.74 | 9.75 | 1.8 |
| GKMPQYLESMQ [CYB5R3_Y130_S128P] | 0.906 | 0.571 | 0.932 | 0.492 | 0.614 | 0.517 | 0.73 | 0.304 | 0.537 | 0.466 | 0.412 | 0.741 | 0.459 | 0.554 | 0.473 | 0.701 |
| KFACSYTPVKA [FLNB_Y708_T703K_YF] | 0.862 | 0.978 | 1.99 | 0.521 | 0.577 | 0.497 | 0.747 | 0.462 | 0.472 | 0.509 | 0.502 | 0.811 | 0.459 | 0.579 | 0.481 | 0.895 |
| FTGDIYSNSNL [LZTR1_Y141_YF] | 0.721 | 0.415 | 0.586 | 0.903 | 0.831 | 0.667 | 0.756 | 2.87 | 6.36 | 7.46 | 0.738 | 0.957 | 5.54 | 0.502 | 1.1 | 0.849 |
| VHSGTYQVTVR [MYBPC3_Y1043] | 0.725 | 0.567 | 0.64 | 0.521 | 0.442 | 0.404 | 0.48 | 0.435 | 0.448 | 0.738 | 0.489 | 0.593 | 0.561 | 0.391 | 0.409 | 0.586 |
| DKATEYIQFMR [MAX_Y70_YF] | 0.887 | 0.565 | 0.608 | 0.528 | 0.803 | 0.589 | 0.793 | 0.439 | 0.675 | 0.69 | 0.549 | 1 | 0.703 | 0.655 | 0.439 | 1.01 |
| NYSKMYCNPDA [KNL1_Y489_A486S] | 3.18 | 2.63 | 0.819 | 0.536 | 0.566 | 0.483 | 0.819 | 0.435 | 0.396 | 0.469 | 0.45 | 0.794 | 0.349 | 0.521 | 0.414 | 0.914 |
| WNDLDYVDSRR [GAA_Y407_M408V] | 0.903 | 0.643 | 0.796 | 0.515 | 0.53 | 0.567 | 0.89 | 0.45 | 0.373 | 0.521 | 0.869 | 1.44 | 0.478 | 0.67 | 0.357 | 0.94 |
| SVGGCYEQLFV [MC4R_Y41_D37V] | 0.862 | 0.76 | 0.633 | 1.02 | 1.22 | 0.791 | 1.14 | 7.02 | 0.982 | 1.46 | 0.661 | 1.51 | 1.24 | 0.972 | 0.826 | 1.42 |
| EFENSYIFDIN [GAB1_Y83] | 0.82 | 0.581 | 0.854 | 0.435 | 0.501 | 0.478 | 1.16 | 0.489 | 0.519 | 0.488 | 0.58 | 1.25 | 0.432 | 0.695 | 0.419 | 1.16 |
| VKALKYKSMKI [ITGA11_Y1098_L1093V] | 1.29 | 1.14 | 1.23 | 0.32 | 0.472 | 0.369 | 0.434 | 0.327 | 0.329 | 0.31 | 0.331 | 0.396 | 0.306 | 0.405 | 0.276 | 0.507 |
| ISIFHYAKGQP [MPZ_Y82] | 0.874 | 0.7 | 0.739 | 0.69 | 0.644 | 0.456 | 0.855 | 0.434 | 0.463 | 0.466 | 0.481 | 1.04 | 0.35 | 0.68 | 0.379 | 1.03 |
| DAICFYRMENA [NPHS2_Y195_YF] | 0.785 | 0.56 | 0.805 | 0.645 | 0.914 | 0.624 | 1.19 | 0.592 | 0.726 | 0.624 | 0.544 | 1.14 | 2.96 | 0.85 | 0.482 | 1.47 |
| NHQYDYTFDWT [CSNK1A1_Y294] | 1.07 | 3 | 0.561 | 0.606 | 0.646 | 3.99 | 0.899 | 0.569 | 0.66 | 0.543 | 0.767 | 1.38 | 1.62 | 2.67 | 1.04 | 0.991 |
| AHAGEHGAEAL [HBA1_Y25_Y25H] | 0.782 | 0.484 | 0.763 | 0.378 | 0.454 | 0.476 | 0.491 | 0.419 | 0.354 | 0.479 | 0.439 | 0.521 | 0.461 | 0.451 | 0.382 | 0.703 |
| AEVDTYCRHNY [HLA-DRB1_Y107_A103E] | 0.939 | 0.699 | 0.838 | 0.428 | 0.554 | 0.461 | 0.682 | 0.442 | 0.394 | 0.505 | 0.559 | 0.771 | 0.537 | 0.559 | 0.391 | 0.98 |
| AEPTGYSAELS [EZR_Y499] | 0.721 | 0.457 | 0.525 | 0.513 | 0.799 | 0.528 | 1.08 | 0.535 | 0.524 | 0.616 | 0.583 | 1.03 | 0.488 | 0.636 | 0.485 | 1.01 |
| EQMLEYMGQLQ [CFAP45_Y289_E291G] | 0.794 | 0.42 | 0.553 | 0.436 | 0.762 | 0.447 | 0.873 | 0.427 | 0.542 | 0.507 | 0.493 | 0.913 | 0.505 | 0.595 | 0.448 | 1.01 |

The next lines start with results.

| SH2 binding enrichment (Grb2 SH2) | SH2 binding enrichment (c-Src SH2) | SH2 binding enrichment (SHP2-C SH2) | Sequence | phosphorylation enrichment (EPHB1) | phosphorylation enrichment (c-Abl (mouse)) | phosphorylation enrichment (FGFR1) | phosphorylation enrichment (Jak2) | phosphorylation enrichment (Fer (mouse)) | phosphorylation enrichment (Fyn) | phosphorylation enrichment (Hck) | phosphorylation enrichment (EPHB2) | phosphorylation enrichment (AncSZ) | phosphorylation enrichment (c-Src) | phosphorylation enrichment (FGFR3) | phosphorylation enrichment (MERTK) | phosphorylation enrichment (Fes) |
| --- | --- | --- | --- | --- | --- | --- | --- | --- | --- | --- | --- | --- | --- | --- | --- | --- |
| 1.07 | 0.568 | 0.644 | NKEPRYQEEPP [TJP2_Y479_D482E] | 0.499 | 0.907 | 0.444 | 0.915 | 0.43 | 0.507 | 0.508 | 0.67 | 1.1 | 0.421 | 0.685 | 0.501 | 1.18 |
| 0.711 | 0.611 | 1.16 | SPPEVYAIMRG [NTRK1_Y757_C752S] | 1.12 | 0.609 | 0.506 | 0.718 | 0.525 | 1.63 | 2.91 | 0.641 | 0.99 | 2.64 | 0.524 | 1.82 | 0.808 |
| 1.63 | 1.29 | 1.61 | LLVVLYKYRCF [PSEN1_Y154_Y159F] | 1.23 | 2.02 | 1.11 | 2.16 | 0.911 | 0.762 | 0.825 | 1.03 | 1.32 | 0.523 | 1.12 | 0.626 | 2.42 |
| 0.962 | 0.613 | 0.644 | FKGKNYKPLDL [RPL35_Y78_K77N_YF] | 0.262 | 0.618 | 0.393 | 0.663 | 0.471 | 0.354 | 0.38 | 0.385 | 0.432 | 0.487 | 0.418 | 0.359 | 0.641 |
| 0.61 | 0.514 | 0.573 | RAYRRYLLKQK [SCN2A_Y1919] | 0.353 | 0.42 | 0.489 | 0.486 | 0.415 | 0.559 | 0.51 | 0.468 | 0.729 | 0.446 | 0.495 | 0.387 | 0.491 |
| 0.942 | 1.44 | 0.913 | SKAFAYVHFDS [PABPC5_Y149_G146A_YF] | 0.447 | 0.669 | 0.449 | 1.09 | 0.537 | 0.382 | 0.51 | 0.483 | 0.935 | 0.424 | 0.828 | 0.443 | 1.36 |
| 1.08 | 0.634 | 0.658 | FTTIHYNFMCN [TP53_Y234_C229Y_YF] | 0.74 | 0.987 | 0.682 | 1.24 | 0.565 | 0.496 | 0.63 | 0.65 | 1.03 | 0.455 | 0.887 | 0.495 | 1.4 |
| 0.856 | 1.16 | 0.827 | LLNPRYNLPLD [TOM1L1_Y109] | 0.54 | 1.32 | 0.645 | 0.83 | 0.62 | 0.63 | 0.741 | 0.822 | 1.14 | 0.59 | 0.767 | 1.16 | 0.952 |
| 1.36 | 0.792 | 0.434 | TTKGAYSLSIR [YES1_Y194] | 0.369 | 0.669 | 0.49 | 0.614 | 0.383 | 0.406 | 0.445 | 0.414 | 0.656 | 0.567 | 0.395 | 0.548 | 0.681 |
| 1.03 | 0.624 | 0.539 | FSDQVYRQHRK [TH_Y230_R233H] | 0.335 | 0.819 | 0.388 | 0.529 | 0.355 | 0.378 | 0.447 | 0.452 | 0.555 | 0.452 | 0.441 | 0.357 | 0.644 |
| 1.06 | 0.568 | 0.766 | VRTGIYHGREP [PIK3CA_Y361_G364R] | 0.302 | 0.581 | 0.324 | 0.491 | 0.374 | 0.357 | 0.638 | 0.38 | 0.478 | 0.503 | 0.46 | 0.291 | 0.599 |
